Among the targets are PDE5/6cd M804L (human) (UniProt O76074); PDE5/6cd P803D (human) (UniProt O76074); PDE5/6cd I802A (human) (UniProt O76074); PDE5/6cd I802T (human) (UniProt O76074); PDE5/6cd F823A (human) (UniProt O76074); PDE5/6cd L792R (human) (UniProt O76074); PDE5/6cd V796E (human) (UniProt O76074); PDE5/6cd Q799I (human) (UniProt O76074); PDE5/6cd M804A (human) (UniProt O76074); PDE5cd A823F (human, UniProt O76074 535-860, A823F).

Assay in all cases: inhibition of PDE activity
In test [1] the target is PDE5/6cd I802A/P803D/M804L (human) (UniProt O76074).
Test [2] deals with chimeric PDE5/PDE6 catalytic domain PDE5/6cd (human) (UniProt O76074).
Test [3] deals with PDE5/6cd I802T/P803D/M804L (human) (UniProt O76074).
Test [4] addresses PDE5/6cd I802A//M804A (human) (UniProt O76074).
Test [5] concerns the target PDE5/6cd L792R/V796E/Q799I (human) (UniProt O76074).
Test [6] deals with PDE5cd T802I/D803P/L804M/A823F (human, UniProt O76074 535-860, T802I | D803P | L804M | A823F).
Test [7] addresses PDE5cd R792L/E796V/I799Q/A823F (human, UniProt O76074 535-860, R792L | E796V | I799Q | A823F).

The values below come from paper PMC2864356 (Biochemistry, 2010).

Consider “Pγ C-terminal peptide Pγ_(63-87) (from UniProt P04972 63-87)”, for which the Ki (in general, the dissociation constant of the complex between target and ligand, obtained from inhibition or displacement) with PDE5/6cd M804L (human) was 2 µM; in [1] it was 25.5 µM; with PDE5/6cd P803D (human), 6.7 µM; in the test with PDE5/6cd I802A (human), 12.1 µM; with PDE5/6cd I802T (human), 8.6 µM; with PDE5/6cd F823A (human) it was 15.1 µM. Besides, the Ki was determined as 3.2 µM in the test with PDE5/6cd L792R (human); 1.8 µM with PDE5/6cd V796E (human); 1.7 µM in test [2]; 3.5 µM with PDE5/6cd Q799I (human); 21.8 µM in test [3]; 26.2 µM in test [4]. Further, the Ki with PDE5/6cd M804A (human) came out at 10.3 µM; in [5], 6 µM.
As to DITVICPWEAFNHLELHELAQYGII (peptide, UniProt P04972 63-87, looked up) [Pγ C-terminal peptide Pγ_(63-87)], the Ki in test [6] came out at 19.4 µM; with PDE5cd A823F, 44.3 µM; in test [7], 23.5 µM. Further, the “maximal inhibition (%)” value turned out to be 72 ± 4% in [6], 52 ± 4% in the test with PDE5cd A823F and 78 ± 5% in [7].
